For this data set, the target named is LARP4B (UniProt Q92615 1-738). Briefly: EMSA. In general terms: A gel shift assay detects complexes by their altered migration in electrophoresis.

The source of these data is PMC4478348.

Chain of LARP4B (Q92615 whole entry): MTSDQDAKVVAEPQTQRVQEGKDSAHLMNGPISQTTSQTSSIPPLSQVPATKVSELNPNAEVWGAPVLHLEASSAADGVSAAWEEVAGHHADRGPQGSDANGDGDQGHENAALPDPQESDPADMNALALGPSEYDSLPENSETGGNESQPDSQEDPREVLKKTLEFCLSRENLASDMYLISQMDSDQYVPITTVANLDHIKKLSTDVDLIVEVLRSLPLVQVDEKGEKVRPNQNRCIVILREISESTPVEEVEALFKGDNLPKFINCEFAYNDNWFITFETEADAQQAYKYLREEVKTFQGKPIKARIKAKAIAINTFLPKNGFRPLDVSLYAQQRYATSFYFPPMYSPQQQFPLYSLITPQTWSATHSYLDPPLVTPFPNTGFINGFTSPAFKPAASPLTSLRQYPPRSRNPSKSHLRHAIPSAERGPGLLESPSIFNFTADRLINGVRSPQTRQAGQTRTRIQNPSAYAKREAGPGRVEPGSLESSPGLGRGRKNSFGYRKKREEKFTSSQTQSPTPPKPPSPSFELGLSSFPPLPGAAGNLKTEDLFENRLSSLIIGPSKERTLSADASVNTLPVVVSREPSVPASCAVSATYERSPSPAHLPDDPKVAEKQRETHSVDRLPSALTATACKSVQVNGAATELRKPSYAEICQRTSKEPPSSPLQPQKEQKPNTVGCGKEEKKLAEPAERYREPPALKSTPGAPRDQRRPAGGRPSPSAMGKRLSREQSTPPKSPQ

B1: CKB del (ssRNA)
RNA: GUAGAGACUUCCGUCACGCUUGGUAGAGGA
With B1, the binding result is listed as “no binding”.

B2: CKB (ssRNA)
RNA: GUAGAGACUUCCGUCACGCUUGGUAGAGUUUAUUUUUUUGA
As for B2, the Kd was ~200 nM.

Broadly, the Kd is the free concentration of one partner at which half of the binding sites on the other are occupied at equilibrium, for simple one-to-one binding. Read a low Kd as higher affinity.
